How the values were obtained:
[1] = test system: ARD (MM); experiment: Cell killing assay (cell proliferation, Cell Titer-Glo); format: cell-based, human; conditions: 72 hrs
Description: (§1) Cytotoxicity effects of the free drug linkers and conjugates were measured with a cell proliferation assay. A total of 12500 cells in a volume of 25 μl were seeded in a 384-well flat bottom white polystyrene plate on the day of assay. Free drug-linkers and conjugates were formulated at 2× starting concentration (1000 nM for free drug linkers and 100 nM for ADCs) in RPMI medium and filtered through MultiScreen HTS 96-Well Filter Plates (Millipore). Filter sterilized samples were serial diluted (1:3) under sterile conditions and added into treatment wells. Plates were cultured at 37° C. in a CO2 incubator for 72 hrs. For cell viability measurement, 30 μl of Cell Titer-Glo® reagent (Promega Corp.) was added into each well, and plates processed as per product instructions. Relative luminescence was measured on an ENVISION® plate reader (Perkin-Elmer; Waltham, Mass.). Relative luminescence readings were converted to % viability using untreated cells as controls. Data was fitted with non-linear regression analysis, using log(inhibitor) vs. response, variable slope, 4 parameter fit equation using GraphPad Prism. Data was expressed as % relative cell viability vs. dose of free drug-linker or conjugate in nM.

[2] = test system: ARP-1 (MM); experiment: as above; format: cell-based, human; conditions: 72 hrs
Description: as §1

[3] = test system: SU-DHL-6 (NHL); experiment: as above; format: cell-based, human; conditions: 72 hrs
Description: as §1

[4] = test system: K562 (CML); experiment: as above; format: cell-based; set-up: key to Cell Killing Activity Span: NK = no killing; NB = no binding; conditions: 72 hrs
Description: as §1

[5] = test system: OPM-2 (MM); experiment: as above; format: cell-based; set-up: key to Cell Killing Activity Span: NK = no killing; NB = no binding; conditions: 72 hrs
Description: as §1

[6] = test system: RPMI-8226 (MM); experiment: as above; format: cell-based; set-up: key to Cell Killing Activity Span: NK = no killing; NB = no binding; conditions: 72 hrs
Description: as §1

[7] = test system: BDCM (AML); experiment: as above; format: cell-based; conditions: 72 hrs
Description: as §1

[8] = test system: JVM-13 (CLL); experiment: as above; format: cell-based; conditions: 72 hrs
Description: as §1

[9] = test system: RPMI-6666 (HL); experiment: as above; format: cell-based; conditions: 72 hrs
Description: as §1

[10] = test system: SUP-B15 (ALL); experiment: as above; format: cell-based; conditions: 72 hrs
Description: as §1

[11] = target: CD74 (human), P04233; experiment: cell-based or functional assay
Sequence of CD74 (human), P04233 (P04233 whole entry): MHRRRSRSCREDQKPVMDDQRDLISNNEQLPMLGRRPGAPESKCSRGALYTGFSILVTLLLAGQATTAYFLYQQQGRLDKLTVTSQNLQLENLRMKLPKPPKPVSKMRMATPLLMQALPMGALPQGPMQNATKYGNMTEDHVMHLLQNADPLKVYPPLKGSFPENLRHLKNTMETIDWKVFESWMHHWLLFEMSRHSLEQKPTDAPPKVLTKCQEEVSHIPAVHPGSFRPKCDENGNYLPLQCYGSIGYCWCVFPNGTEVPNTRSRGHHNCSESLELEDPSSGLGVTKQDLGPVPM

COc1cc2cc(c1Cl)N(C)C(=O)C[C@H](OC(=O)[C@H](C)N(C)C(=O)CCCC(=O)N(C)CCOCCOCCOCCOCCC(=O)NCCC(=O)N1Cc3ccccc3C#Cc3ccccc31)[C@]1(C)O[C@H]1[C@H](C)[C@@H]1C[C@@](O)(NC(=O)O1)[C@H](OC)/C=C/C=C(/C)C2 [Free Linker-Drug, DBCO-PEG4-maytansine, reference compound]
Cell Killing Activity Span [1]: 40% | Cell Killing Activity Span [2]: 77% | Cell Killing Activity Span [3]: 98% | Cell Killing Activity Span [4]: NK | Cell Killing Activity Span [5]: NK | Cell Killing Activity Span [6]: NK | Cell Killing Activity Span [7]: 76% | Cell Killing Activity Span [8]: 65% | Cell Killing Activity Span [9]: 85% | Cell Killing Activity Span [10]: 65%

B1: Conjugate A (anti-CD74 IgG-DBCO-PEG4-maytansine conjugate) (antibody, V domains shown)
VH: QVQLVESGGGVVQPGRSLRLSCAASGFNFSDYGMHWVRQAPGKGLEWVAVIWYDGSISYYADSVKGRFTISRDNSKNTLYLQMNSLRAEDTAVYYCARGGTVEHGAVYGTDVWGQGTTVTVSS
VL: DIQMTQSPSSVSASVGDRVTITCRASQGIGSWLAWYQQKPGKAPKLLIYAADRLQSGVPSRFSGSGSGTDFTLTISSLQPEDFATYYCQQYHTYPLTFGGGTKVEIK
modifications: here or on the partner: para-azidomethyl-L-phenylalanine (pAMF, residue 30) at heavy chain EU position 404 (constant region, outside SEQ ID NO 236), linked to DBCO-PEG4-maytansine
cell killing EC50, HH T lymphoma cells, 120 h CellTiter-Glo [11]: 0.22 nM | cell killing EC50, HuT-78 T lymphoma cells, 120 h CellTiter-Glo [11]: 0.59 nM | cell killing EC50, My-La T lymphoma cells, 120 h CellTiter-Glo [11]: 0.54 nM | cell killing IC50, ARD (MM) cells [11]: 8.6 nM | cell killing IC50, ARD (MM) cells, 72 h CellTiter-Glo [11]: 8.6 nM | cell killing IC50, ARP-1 (MM) cells [11]: 9 nM | cell killing IC50, ARP-1 (MM) cells, 72 h CellTiter-Glo [11]: 9 nM | cell killing IC50, BDCM (AML) cells [11]: 4.6 nM | cell killing IC50, BDCM (AML) cells, 72 h CellTiter-Glo [11]: 4.6 nM | cell killing IC50, JVM-13 (CLL) cells [11]: 1.5 nM | cell killing IC50, JVM-13 (CLL) cells, 72 h CellTiter-Glo [11]: 1.5 nM | cell killing IC50, RPMI-6666 (HL) cells [11]: 1 nM | cell killing IC50, RPMI-6666 (HL) cells, 72 h CellTiter-Glo [11]: 1 nM | cell killing IC50, SU-DHL-6 (NHL) cells [11]: 0.6 nM | cell killing IC50, SU-DHL-6 (NHL) cells, 72 h CellTiter-Glo [11]: 0.6 nM | cell killing IC50, SUP-B15 (ALL) cells [11]: 3 nM | cell killing IC50, SUP-B15 (ALL) cells, 72 h CellTiter-Glo [11]: 3 nM | cell killing Span, ARD (MM) cells [11]: 40% | cell killing Span, ARD (MM) cells, 72 h CellTiter-Glo [11]: 38% | cell killing Span, ARP-1 (MM) cells [11]: 77% | cell killing Span, ARP-1 (MM) cells, 72 h CellTiter-Glo [11]: 74% | cell killing Span, BDCM (AML) cells [11]: 76% | cell killing Span, BDCM (AML) cells, 72 h CellTiter-Glo [11]: 74% | cell killing Span, HH T lymphoma cells, 120 h CellTiter-Glo [11]: 77% | cell killing Span, HuT-78 T lymphoma cells, 120 h CellTiter-Glo [11]: 72% | cell killing Span, JVM-13 (CLL) cells [11]: 65% | cell killing Span, JVM-13 (CLL) cells, 72 h CellTiter-Glo [11]: 58% | cell killing Span, My-La T lymphoma cells, 120 h CellTiter-Glo [11]: 73% | cell killing Span, RPMI-6666 (HL) cells [11]: 85% | cell killing Span, RPMI-6666 (HL) cells, 72 h CellTiter-Glo [11]: 84% | cell killing Span, SU-DHL-6 (NHL) cells [11]: 98% | cell killing Span, SU-DHL-6 (NHL) cells, 72 h CellTiter-Glo [11]: 98% | cell killing Span, SUP-B15 (ALL) cells [11]: 65% | cell killing Span, SUP-B15 (ALL) cells, 72 h CellTiter-Glo [11]: 64%

B2: Conjugate B (anti-CD74 IgG-PEG4-maytansine conjugate) (antibody, V domains shown)
VH: B1 VH
VL: B1 VL
modifications: here or on the partner: modified amino acid residue 30 (pAMF) according to Example 2, position not stated for this conjugate, linked to a PEG4-maytansine linker-payload
cell killing IC50, ARD (MM) cells [11]: 31 nM | cell killing IC50, ARP-1 (MM) cells [11]: 16 nM | cell killing IC50, BDCM (AML) cells [11]: 15 nM | cell killing IC50, JVM-13 (CLL) cells [11]: 2 nM | cell killing IC50, RPMI-6666 (HL) cells [11]: 1.3 nM | cell killing IC50, RPMI-8226 (MM) cells [11]: 51 nM | cell killing IC50, SU-DHL-6 (NHL) cells [11]: 1.3 nM | cell killing IC50, SUP-B15 (ALL) cells [11]: 5.7 nM | cell killing Span, ARD (MM) cells [11]: 53% | cell killing Span, ARP-1 (MM) cells [11]: 82% | cell killing Span, BDCM (AML) cells [11]: 95% | cell killing Span, JVM-13 (CLL) cells [11]: 69% | cell killing Span, RPMI-6666 (HL) cells [11]: 89% | cell killing Span, RPMI-8226 (MM) cells [11]: 41% | cell killing Span, SU-DHL-6 (NHL) cells [11]: 98% | cell killing Span, SUP-B15 (ALL) cells [11]: 72%

B3: Conjugate E: anti-CD74 IgG containing residue 30 conjugated to a PEG4-MMAF precursor (conjugate)
VH: B1 VH
VL: B1 VL
Cell Killing Activity Span [1]: 20% | IC50 [1]: 18 nM | Cell Killing Activity Span [2]: 71% | IC50 [2]: 6 nM | Cell Killing Activity Span [3]: 98% | IC50 [3]: 0.5 nM | Cell Killing Activity Span [4]: NK | IC50 [4]: > 50 nM | Cell Killing Activity Span [5]: NK | IC50 [5]: > 50 nM | Cell Killing Activity Span [6]: NK | IC50 [6]: > 50 nM | Cell Killing Activity Span [7]: 78% | IC50 [7]: 3.3 nM | Cell Killing Activity Span [8]: 47% | IC50 [8]: 7.8 nM | Cell Killing Activity Span [10]: 58% | IC50 [10]: 2.5 nM

From patent US20200207859A1 (priority 2017, published 2020)
